Test results: patent publication US20260092110A1 (Kyowa Kirin, published 2026)

T1: human MOG (hMOG) expressed on HEK293, Expi293F or L929 cells (human, UniProt Q16653 30-247)
T1 construct: also called hMOG/HEK293; hMOG/HEK293F
T1 chain: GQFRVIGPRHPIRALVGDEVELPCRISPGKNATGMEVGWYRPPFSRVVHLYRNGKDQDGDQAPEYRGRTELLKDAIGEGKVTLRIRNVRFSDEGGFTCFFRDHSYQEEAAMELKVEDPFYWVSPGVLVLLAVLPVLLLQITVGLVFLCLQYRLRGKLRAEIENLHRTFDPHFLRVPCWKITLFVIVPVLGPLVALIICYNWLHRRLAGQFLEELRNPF


Experiments:
[1] = target: T1, human MOG (hMOG) expressed on HEK293, …; experiment: phage clone on hMOG/Expi293F cells
[2] = target: extracellular domain protein of human MOG to which FLAG-Fc is added at the C-terminus (hMOG-FLAG-Fc) (human); experiment: phage ELISA
[3] = target: T1, human MOG (hMOG) expressed on HEK293, …; experiment: flow cytometry on L929 cells expressing human MOG (hMOG/L929); antibody titrated, RPE-labelled goat anti-human antibody
Description: pEF6_hMOG obtained in Example 5 was introduced to mouse connective tissue-derived fibroblast L929 cells [American Type Culture Collection (ATCC) No.: CCL-1] using HilyMax (manufactured by Dojindo Laboratories). The gene-transfected cells were selected using an antibiotic substance, Blasticidin (manufactured by Invitrogen) and then cloned by the limiting dilution method. Using the L929 cells expressing hMOG on the cell surface (abbreviated as hMOG/L929 below), the reactivities of the bispecific antibodies were analyzed by the method described below.
The hMOG/L929 cells were suspended in a Staining Buffer (SB) of PBS containing 0.1% NaN₃ and 1% FBS and dispensed to a round-bottom 96-well plate (manufactured by Becton Dickinson). […] After suspending the pellets, the plate was left to stand at ice temperature for 30 minutes. The supernatants were removed after further centrifugation (2000 rpm, 4° C., two minutes), and the pellets were washed with SB. Then, 1 μg/mL RPE fluorescently labeled goat anti-human antibody (manufactured by Southern Biotech) was added, and the plate was incubated at ice temperature for 30 minutes. After washing with SB, the cells were suspended in SB, and the fluorescence intensities of the cells were measured with a flow cytometer FACS CANTO II (manufactured by Becton Dickinson). The results are shown in FIGS. 12A to 12C and FIGS. 13A and 13B.

Row | Binder | binding result [1] | binding result [2] | binding result [3]
1 | MOG426 (scFv phage clone similar to MOG301 antibody) (scFv) scFv: QVQLVQSGAEVKKPGASVKVSCKASGYSFNSYGINWVRQAPGQGLEWMGWISAYTGKTSYAQKVQGRVTMTTDRSTSTAYMELRSLRSDDTAMYYCAREYDILTGYSDAFDTWGQGTMVTVSSGGGGSGGRASGGGGSEIVLTQSPATLSLSPGERATLSCRASQSVSSYLAWYQQKPGQAPRLLIYDASNRATGIPARFSGSGSGTDFTLTISSLEPEDFAVYYCQQRGNWPLTFGGGTKLEIK | binds | binds | –
2 | MOG352 (scFv phage clone similar to MOG310 antibody) (scFv) scFv: EVQLVQSGAEVKKPGSSVKVSCKASGGTFSRYAINWVRQAPGQGLEWMGGIIPMFSTVNYAQKFQGRVTITADESTSTAYMELSSLRSEDTAVYYCARDWAVAGMGFDYWGQGTLVTVSSGGGGSGGRASGGGGSAIQMTQSPSSVSASVGDRVTITCRASQGISSWLAWYQHKPGKAPKSLIYAASSLQSGVPSRFSGSGSGTDFTLTISSLQPEDFATYYCQQYNSYPLTFGGGTKVDIK | binds | binds | –
3 | MOG316 (scFv phage clone similar to MOG310 antibody) (scFv) scFv: EVQLVQSGAEVKKPGSSVKVSCKASGGTFSRYAISWVRQAPGQGLEWMGGIIPMFNTANYAQKFQGRVTITADESTSTAYMELSSLRSEDTAVYYCARDWAVAGMGFNYWGQGTLVTVSSGGGGSGGRASGGGGSDIQMTQSPSSLSASVGDRVTITCRASQGINSALAWYQQKPGKAPKLLIYAASSLQSGVPSRFSGSGSGTDFTLTISSLQPEDFATYYCQQYNSYPITFGQGTRLEIK | binds | binds | –
4 | MOG329 antibody (anti-MOG scFv displayed on phage, pCANTAB_MOG329) (scFv) scFv: QVQLVESGGGLVQPGGSLRLSCAASGFAFRNYAMNWVRQAPGKGLEWVSAISGSGGSTYYADSVKGRFTISRDNSKNTLYLQMNSLRAEDTAVYYCARDYGGISPFDYWGQGTLVTVSSGGGGSGGRASGGGGSDIQLTQSPSSLSASVGDRVTITCRASQGISSALAWYQQKPGKAPKLLIYDASSLESGVPSRFSGSGSGTDFTLTISSLQPEDFATYYCQQFNSYPHTFGQGTKVDIK | binds | binds | –
5 | MOG338 (scFv phage clone similar to MOG310 antibody) (scFv) scFv: QVQLVQSGAEVKKPGSSVKVSCKASGGTFSRYAISWVRQAPGQGLEWMGGIIPMFNTANYAQKFQGRVTITADESTSTAYMELSSLRSEDTAVYYCARDWAVAGMGFDPWGQGTLVTVSSGGGGSGGRASGGGGSEIVLTQSPATLSLSPGERATLSCRASQSVSSYLAWYQQKPGQAPRLLIYDASNRATGIPARFSGSGSGTDFTLTISSLEPEDFAVYYCQQRNNWPLTFGGGTKLEIK | binds | binds | –
6 | MOG357 (scFv phage clone similar to MOG303 antibody) (scFv) scFv: EVQLVETGGGLVQPGGSLRLSCAASGFTFSSYAMSWVRQAPGKGLEWVSDINHSGGSTYYADSVKGRFTISRDNSKHTLYLQMNSLRAEDTAVYYCAKDYYDILTGSFFDYWGQGTLVTVSSGGGGSGGRASGGGGSDIVMTQSPSSLSASVGDRVTITCRASQGISSALAWYQQKPGKAPKLLIYDASSLESGVPSRFSGSGSGTDFTLTISSLQPEDFATYYCQQFNSYPWTFGQGTKVEIK | binds | binds | –
7 | MOG314 (scFv phage clone similar to MOG303 antibody) (scFv) scFv: QVQLVESGGGLVQPGGSLRLSCAASGFTFSSYAMSWVRQAPGKGLEWVSAISGRGSSTYYADSVKGRFTISRDNSKNTLYLQMNSLRAEDTAVYYCAKGYYDILTGSFFDYWGQGTLVTVSSGGGGSGGRASGGGGSDIQLTQSPSSLSASVGDRVTITCRASQGISSALAWYQQKPGKAPKLLIYDASSLESGVPSRFSGSGSGTDFTLTISSLQPEDFATYYCQQFNSYPYTFGQGTKLEIK | binds | binds | –
8 | MOG476 (scFv phage clone similar to MOG303 antibody) (scFv) scFv: EVQLVESGGGLVQPGGSLRLSCAASGFTFSSYAMNWVRQAPGKGLEWVSAISYSGRSTYYADSVKGRFTISRDNSKNTLYLQMNSLRAEDTAVYYCAKGLYDILTGGGFDYWGQGTLVTVSSGGGGSGGRASGGGGSDIQMTQSPSSLSASVGDRVTITCRASQGISSALAWYQQKPGKAPKLLIYDASSLESGVPSRFSGSGSGTDFTLTISSLQPEDFATYYCQQFNSYPSTFGQGTRLEIK | binds | binds | –
9 | MOG315 (scFv phage clone similar to MOG303 antibody) (scFv) scFv: EVQLVESGGGLVQPGGSLRLSCAASGFTFSTYAMSWVRQAPGKGLEWVSAISGSGVSTYYADSVKGRFTLSRDNSKNTLYLQMNSLRAEDTAVYYCAKAYYDILTGNFLDYWGQGTLVTVSSGGGGSGGRASGGGGSAIQLTQSPSSLSASVGDRVTITCRASQGISSALAWYQQKPGKAPKLLIYDASSLESGVPSRFSGSGSGTDFTLTISSLQPEDFATYYCQQFNSYPLTFGGGTKVEIK | binds | binds | –
10 | MOG456 antibody (anti-MOG scFv displayed on phage, pCANTAB_MOG456) (scFv) scFv: EVQLVESGGGLVKPGGSLRLSCAASGFTFSSYSMHWVRQAPGKGLEWVSSIGSRSRYIYYADSVKGRFTISRDNAKNSLYLQMNSLRAEDTAVYYCAKGYYDILTGSLFDYWGQGTLVTVSSGGGGSGGRASGGGGSDIVMTQSPSSLSASVGDRVTITCRASQGISSALAWYQQKPGKAPKLLIYDASSLESGVPSRFSGSGSGTDFTLTISSLQPEDFATYYCQQFNSYPWTFGQGTKVEIK | binds | binds | –
11 | MOG308 (scFv phage clone similar to MOG310 antibody) (scFv) scFv: EVQLVQSGAEVRKSGSSVKVSCKASGGTFSRYAISWVRQAPGQGLEWMGGIIPMFSTTNYAQKFQGRVTITADESTSTAYMELSSLRSEDTAVYYCARDWAVAGMGFAYWGQGTLVTVSSGGGGSGGRASGGGGSEIVMTQSPATLSLSPGERATLSCRASQSVSSYLAWYQQKPGQAPRLLIYDASNRATGIPARFSGSGSGTDFTLTISSLEPEDFAVYYCQQRSNWPPTFGQGTKVDIK | binds | binds | –
12 | MOG470 (scFv phage clone similar to MOG329 antibody) (scFv) scFv: QVQLVESGGGLVQPGGSLRLSCAASGFTFSSYAMNWVRQAPGKGLEWVSAISGSGGSTYYADSVKGRFTISRDNSKNTLYLQVNSLRAEDTAVYYCARDYGGISPFDYWGQGTLVTVSSGGGGSGGRASGGGGSEIVMTQSPATLSLSPGERATLSCRASQSVSSYLAWYQQKPGQAPRLLIYDASNRATGIPARFSGSGSGTDFTLTISRLEPEDFAVYYCQQYGSSPYTFGQGTRLEIK | binds | binds | –
13 | AVM IgG4PE(R409K)_MOG01dscFv2 antibody (bispecific antibody, also called pCI-AVM-hLG4PE(R409K)_MOG01scFv2) heavy: not shown light: QFVLSQPNSVSTNLGSTVKLSCKRSTGNIGSNYVSWYQQHEGRSPTTMIYRDDKRPDGVPDRFSGSIDRSSDSALLTINNVQTEDEADYFCQSYSSGINIFGGGTKLTVLGQPKAAPSVTLFPPSSEELQANKATLVCLISDFYPGAVTVAWKADSSPVKAGVETTTPSKQSNNKYAASSYLSLTPEQWKSHRSYSCQVTHEGSTVEKTVAPTECS | – | – | binds
14 | AVM IgG4PE(R409K)_MOG01dscFv8 antibody (bispecific antibody, also called pCI-AVM-hLG4PE(R409K)_MOG01scFv8) heavy: not shown light: QFVLSQPNSVSTNLGSTVKLSCKRSTGNIGSNYVSWYQQHEGRSPTTMIYRDDKRPDGVPDRFSGSIDRSSDSALLTINNVQTEDEADYFCQSYSSGINIFGGGTKLTVLGQPKAAPSVTLFPPSSEELQANKATLVCLISDFYPGAVTVAWKADSSPVKAGVETTTPSKQSNNKYAASSYLSLTPEQWKSHRSYSCQVTHEGSTVEKTVAPTECS | – | – | binds
15 | AVM IgG4PE(R409K)_MOG01dscFv10 antibody (bispecific antibody, also called AVM IgG4PE(R409K)_MOG01dscFvlO antibody; pCI-AVM-hLG4PE(R409K)_MOG01scFv10) heavy: not shown light: QFVLSQPNSVSTNLGSTVKLSCKRSTGNIGSNYVSWYQQHEGRSPTTMIYRDDKRPDGVPDRFSGSIDRSSDSALLTINNVQTEDEADYFCQSYSSGINIFGGGTKLTVLGQPKAAPSVTLFPPSSEELQANKATLVCLISDFYPGAVTVAWKADSSPVKAGVETTTPSKQSNNKYAASSYLSLTPEQWKSHRSYSCQVTHEGSTVEKTVAPTECS | – | – | binds
16 | AVM IgG4PE(R409K)_MOG01dscFv9 antibody (bispecific antibody, also called pCI-AVM-hLG4PE(R409K)_MOG01scFv9) heavy: not shown light: QFVLSQPNSVSTNLGSTVKLSCKRSTGNIGSNYVSWYQQHEGRSPTTMIYRDDKRPDGVPDRFSGSIDRSSDSALLTINNVQTEDEADYFCQSYSSGINIFGGGTKLTVLGQPKAAPSVTLFPPSSEELQANKATLVCLISDFYPGAVTVAWKADSSPVKAGVETTTPSKQSNNKYAASSYLSLTPEQWKSHRSYSCQVTHEGSTVEKTVAPTECS | – | – | binds
17 | AVM IgG4PE(R409K)_MOG01dscFv4 antibody (bispecific antibody, also called pCI-AVM-hLG4PE(R409K)_MOG01scFv4) heavy: not shown light: QFVLSQPNSVSTNLGSTVKLSCKRSTGNIGSNYVSWYQQHEGRSPTTMIYRDDKRPDGVPDRFSGSIDRSSDSALLTINNVQTEDEADYFCQSYSSGINIFGGGTKLTVLGQPKAAPSVTLFPPSSEELQANKATLVCLISDFYPGAVTVAWKADSSPVKAGVETTTPSKQSNNKYAASSYLSLTPEQWKSHRSYSCQVTHEGSTVEKTVAPTECS | – | – | binds
